According to the RNAGym collection of RNA variant scans (doi:10.7554/elife.80360):

B1: Hairpin Ribozyme (parent)
chain: GUCCUCUUUCACGUGCGCGUGAAAGAGAGAAGUGAACCAGAGAAACACACGUUGUGGUAUAUUACCUGGUA

Variants of: B1
Assay: self-cleavage, relative activity (ratio to wild type); higher = more cleavage; co-transcriptional

Point of comparison: GUGCUCUUUCACGUGCGCGUGAAAGAGAGAAGUGAACCAGAGAAACAUACGUUGUGGUAUAUUACCUGGUA [C3G C48U], self-cleavage 0.0425. Against it:
- GUGCUCUUUCACGUGCGCGUGAAAGAGAGAAGUGAAGCAGAGAAACACACGUUGUGGUAUAUUACCUGGUA [C3G C37G] — higher, 0.0959
- GUGCUCUUUCACGUGCGCGUGAAAGAGAGAAGUGAAUCAGAGAAACACACGUUGUGGUAUAUUACCUGGUA [C3G C37U] — higher, 0.189
- GUGCUCUUUCACGUGGGCGUGAAAGAGAGAAGUGAACCAGAGAAACACACGUUGUGGUAUAUUACCUGGUA [C3G C16G] — higher, 0.34
- GUGCUCUUUCACGUGCGCGUGAAAGAGAGAAGUGAACCCGAGAAACACACGUUGUGGUAUAUUACCUGGUA [C3G A39C] — higher, 0.202
- GUUCUCUUUCACGUGCGCGUGAGAGAGAGAAGUGAACCAGAGAAACACACGUUGUGGUAUAUUACCUGGUA [C3U A23G] — higher, 0.325
- GUUCUCUUUCACGUGCGCGUGAUAGAGAGAAGUGAACCAGAGAAACACACGUUGUGGUAUAUUACCUGGUA [C3U A23U] — higher, 0.535
- GUGCUCUUUCACGUGCGCGUGAAAGAGAGAAGUGAACCAGACAAACACACGUUGUGGUAUAUUACCUGGUA [C3G G42C] — higher, 0.103
- GUGCUCUUUCACGUGCGCGUGAAAGAGAGAAGUGAACCAGAGAAACACACGUUGUGGUAUAUUACCAGGUA [C3G U67A] — higher, 0.0949
- GUGCUCUUUCACGUGCGCGUGAAAGAGAGAAGUGAACCAGAGAAACACACGUUGUGGUAAAUUACCUGGUA [C3G U60A] — higher, 0.167
- GUGCUCUUUAACGUGCGCGUGAAAGAGAGAAGUGAACCAGAGAAACACACGUUGUGGUAUAUUACCUGGUA [C3G C10A] — higher, 0.18
- GUGCUCUUUCACGUGCGCGUGAAAGAGAGAAGUGAACCAGAGAAACACACGUUGUGGUAUAUUACCUGGUU [C3G A71U] — higher, 0.148
- GUGCUCUUUCACGUGCGCGUGAAAGAGAGAAGUGAACCAGAGAAACACACGUUGUGGUAUAUUACCUGGUC [C3G A71C] — higher, 0.58
- GUGCUCUUUCACGUGCGCGUGAAAGAGAGAAGUGAACCAGAGAAACACACGUUGUGGUAUAUUUCCUGGUA [C3G A64U] — higher, 0.134
- GUGCUCUAUCACGUGCGCGUGAAAGAGAGAAGUGAACCAGAGAAACACACGUUGUGGUAUAUUACCUGGUA [C3G U8A] — higher, 0.377
- GUGCUCUUUCACGUGCGCGUGAAAGAGAGAAGUGAACCAGAGAAGCACACGUUGUGGUAUAUUACCUGGUA [C3G A45G] — higher, 0.118
- GUGCUCUUUCACGUGCGCGUGAAAGAGAGAAGUGAACCAGAGAACCACACGUUGUGGUAUAUUACCUGGUA [C3G A45C] — higher, 0.0981
- GUGCUCUUUCACGUGCGCGUGAAAGAGAGAAGUGAACCAGAGAAACACACGUUGUGGAAUAUUACCUGGUA [C3G U58A] — higher, 0.0819
- GUUCUCUUUCACGUGCGCGUGAAAGGGAGAAGUGAACCAGAGAAACACACGUUGUGGUAUAUUACCUGGUA [C3U A26G] — higher, 0.509
- GUGCUCUUUCAGGUGCGCGUGAAAGAGAGAAGUGAACCAGAGAAACACACGUUGUGGUAUAUUACCUGGUA [C3G C12G] — higher, 0.199
- GUGUUCUUUCACGUGCGCGUGAAAGAGAGAAGUGAACCAGAGAAACACACGUUGUGGUAUAUUACCUGGUA [C3G C4U] — higher, 0.277
- GUGCUCUUUCACGUGCGCGUGAAAGAGAGAAGUGAACCAGAGAUACACACGUUGUGGUAUAUUACCUGGUA [C3G A44U] — higher, 0.114
- GUGCUCUUCCACGUGCGCGUGAAAGAGAGAAGUGAACCAGAGAAACACACGUUGUGGUAUAUUACCUGGUA [C3G U9C] — higher, 0.357
- GUGCUCUUUCACGUGCGCGUGAAAGAGAGAAGUGAACAAGAGAAACACACGUUGUGGUAUAUUACCUGGUA [C3G C38A] — higher, 0.119
- GUGCUCUUUCACGUGCGCGUGAAAGAGAGAAGUGAACCAGUGAAACACACGUUGUGGUAUAUUACCUGGUA [C3G A41U] — higher, 0.527
- GUGCUCUUUCACGUGCGCGUGAAAGAGAGAAGUGAACCAGCGAAACACACGUUGUGGUAUAUUACCUGGUA [C3G A41C] — higher, 0.341
- GUGCUCUUUCACGUGCGCGUGAAAGAGAGAAGUGAACCAGAGAAAUACACGUUGUGGUAUAUUACCUGGUA [C3G C46U] — higher, 0.101
- GUGCUCUUUCACGUGCGCGUGAAAGAGAGAAGUGAACCAGAGAAAAACACGUUGUGGUAUAUUACCUGGUA [C3G C46A] — higher, 0.0768
- GUGCUCUUUCACGUGCGAGUGAAAGAGAGAAGUGAACCAGAGAAACACACGUUGUGGUAUAUUACCUGGUA [C3G C18A] — higher, 0.34
- GUUCUCUUUCACGUGCGCGUGAACGAGAGAAGUGAACCAGAGAAACACACGUUGUGGUAUAUUACCUGGUA [C3U A24C] — higher, 0.477
- GUGCUCUUUCACGUGCGCGUGAAAGAGAGAAGAGAACCAGAGAAACACACGUUGUGGUAUAUUACCUGGUA [C3G U33A] — higher, 0.138
- GUGCUCUUUCACGUGCGCGUGAAAGAGAGAAGUGAACCAGAGAAACACACGUUUUGGUAUAUUACCUGGUA [C3G G54U] — higher, 0.175
- GUGCUCUUUCACGUGCGCGUGAAAGAGAGAAGUGAACCAGAGAAACACACGUUCUGGUAUAUUACCUGGUA [C3G G54C] — higher, 0.126
- GUGCUCUUUCACGUGCGCGUGAAAGAGAGAAGUGUACCAGAGAAACACACGUUGUGGUAUAUUACCUGGUA [C3G A35U] — higher, 0.202
- GUGCUCUUUCACGUGCGCGUGAAAGAGAGAAGUGAACCAGAGAAACACACGUUGUGGUAUACUACCUGGUA [C3G U62C] — higher, 0.0668
- GUGCUCUUUCACGUGCGCGUGAAAGAGAGAAGUGAACCAGAGAAACACACGUUGUGGUAUAUAACCUGGUA [C3G U63A] — higher, 0.108
- GUGCUCUUUCACGUGCGCGUGAAAGAGAGAAGUGAACCAGAGAAACACACGUUGUGGUAUAUGACCUGGUA [C3G U63G] — higher, 0.18
- GUGCUCUUUCACAUGCGCGUGAAAGAGAGAAGUGAACCAGAGAAACACACGUUGUGGUAUAUUACCUGGUA [C3G G13A] — higher, 0.255
- GUGCUCUUUCACCUGCGCGUGAAAGAGAGAAGUGAACCAGAGAAACACACGUUGUGGUAUAUUACCUGGUA [C3G G13C] — higher, 0.321
- GUGCUCUUUCACGUGCGCGUGAAAGAGAUAAGUGAACCAGAGAAACACACGUUGUGGUAUAUUACCUGGUA [C3G G29U] — higher, 0.0672
- GUGCUCUUUCACGUGCGCGUGAAAGAGACAAGUGAACCAGAGAAACACACGUUGUGGUAUAUUACCUGGUA [C3G G29C] — higher, 0.0773
- GUGCUCUUUCACGUGCGCGUGAAAGAGAGAAGUGAACCAGAGAAACACACGUUGUGGUAUAUUACCUGGCA [C3G U70C] — higher, 0.235
- GUGCUCUUUCACGUGCGCGUGAAAGAGAGAAGUGAACCAGAGAAACACACGUUGUGGUAUAUUACCUAGUA [C3G G68A] — higher, 0.085
- GUGCUCUUUCACGUGCGCGUGAAAGAGAGAAGUGAACCAGAGAAACACACGUUGUGGUUUAUUACCUGGUA [C3G A59U] — higher, 0.164
- GUGCUCUUUCACGUGCGCGUGAAAGAGAGAAGUGAACCAGAGAAACACACGUUGUGGUGUAUUACCUGGUA [C3G A59G] — higher, 0.0582
- GUUCUCUUUCACGUGCGCGUGAAAGAGAGAAGUGAACCAGAGAAACACACGUUGUGGUAUAUUACCUGGUA [C3U] — higher, 0.526
- GUGCUCUUUCACGUGCGCGUGAAAGAGAGAAGUGAACCAGAGAAACCCACGUUGUGGUAUAUUACCUGGUA [C3G A47C] — higher, 0.0701
- GUGCUCUUUCACGUGCGCGUGAAAGAGAGAAGUGAACCAGAGAAACACACGUUGUGUUAUAUUACCUGGUA [C3G G57U] — higher, 0.0635
- GUGCUCUUUCACGUGCGCGUGAAAGAGAGAAGUGAACCAGAGAAACACACGUUGUGCUAUAUUACCUGGUA [C3G G57C] — higher, 0.0572
- GUGCUCUUUCACGUGCGCGUGAAAGAGAGAAGUGAACCAGAGAAACACACGUUGUGAUAUAUUACCUGGUA [C3G G57A] — higher, 0.102
- GUGCUCUUUCACGUGCACGUGAAAGAGAGAAGUGAACCAGAGAAACACACGUUGUGGUAUAUUACCUGGUA [C3G G17A] — higher, 0.388
- GUGCUCUUUCACGUCCGCGUGAAAGAGAGAAGUGAACCAGAGAAACACACGUUGUGGUAUAUUACCUGGUA [C3G G15C] — higher, 0.493
- GUGCUCCUUCACGUGCGCGUGAAAGAGAGAAGUGAACCAGAGAAACACACGUUGUGGUAUAUUACCUGGUA [C3G U7C] — higher, 0.372
- GUGCUCUUUCACGUGCGCGUGAAAGAGAGAAGUGAACCAGAGAAACACACGUUGUGGUAUAUUAGCUGGUA [C3G C65G] — lower, 0.0169
- GUGCUCUUUCACGUGCGCGUGAAAGAGAGAAGUGACCCAGAGAAACACACGUUGUGGUAUAUUACCUGGUA [C3G A36C] — higher, 0.165
- GUUCUCUUUCUCGUGCGCGUGAAAGAGAGAAGUGAACCAGAGAAACACACGUUGUGGUAUAUUACCUGGUA [C3U A11U] — higher, 0.32
- GUGCUCUUUCACGUGCGCGUGAAAGAGAGAAGUGAACCAGAGAAACACACGUUGUAGUAUAUUACCUGGUA [C3G G56A] — higher, 0.115
- GUGCUCUUUCACGUGCGCGUGAAAGAGAGAAGUGAACCAGAGAAACACACGUUGUCGUAUAUUACCUGGUA [C3G G56C] — higher, 0.112
- GUGCUCUUUCACGUGCGCGUGAAAGAGAGAAGUGAACCAGAGAAACACACGUUGUUGUAUAUUACCUGGUA [C3G G56U] — higher, 0.157
- GUGCUCUUUCACGAGCGCGUGAAAGAGAGAAGUGAACCAGAGAAACACACGUUGUGGUAUAUUACCUGGUA [C3G U14A] — higher, 0.431
- GUGCUCUUUCACGUGCGCGUGAAAGAGAGAAGUGAACCAGAGAAACACACGUUGUGGUAUCUUACCUGGUA [C3G A61C] — higher, 0.168
- GUGCUCUUUCACGUGCGCGGGAAAGAGAGAAGUGAACCAGAGAAACACACGUUGUGGUAUAUUACCUGGUA [C3G U20G] — higher, 0.28
- GUGCUGUUUCACGUGCGCGUGAAAGAGAGAAGUGAACCAGAGAAACACACGUUGUGGUAUAUUACCUGGUA [C3G C6G] — higher, 0.214
- GUGCUUUUUCACGUGCGCGUGAAAGAGAGAAGUGAACCAGAGAAACACACGUUGUGGUAUAUUACCUGGUA [C3G C6U] — higher, 0.295
- GUGCUCUUUCACGUGCGCGUGAAACAGAGAAGUGAACCAGAGAAACACACGUUGUGGUAUAUUACCUGGUA [C3G G25C] — higher, 0.0885
- GUGCUCUUUCACGUGCGCGUGAAAGAGAGAAGUGAACCAGAGAAACACACGUUGUGGUAUAUUACCUGAUA [C3G G69A] — higher, 0.108
- GUGCUCUUUCACGUGCGCGUGAAAGAGAGAAGUGAACCAGAGAAACACACGUUGUGGUAUAUUACAUGGUA [C3G C66A] — higher, 0.101
- GUGCUCUUUCACGUGCGCGUGAAAGAGAGAAGUGAACCAGAGAAACACACGUGGUGGUAUAUUACCUGGUA [C3G U53G] — higher, 0.235
- GUGCUCUUUCACGUGCGCGUGAAAGAGAGAAGUGAACCAGAGAAACACACGUCGUGGUAUAUUACCUGGUA [C3G U53C] — higher, 0.102
- GUGCUCUUUCACGUGCGCGUGAAAGAGAGAAGUGAACCAGAGAAACACACCUUGUGGUAUAUUACCUGGUA [C3G G51C] — higher, 0.238
- GUGCUCUUUCACGUGCGCGUGAAAGAGAGAAGUGAACCAGAGAAACACACAUUGUGGUAUAUUACCUGGUA [C3G G51A] — higher, 0.369
- GUGCUCUUUCACGUGCGCGUGAAAGAGAGAAGUGAACCAGAGAAACACACGCUGUGGUAUAUUACCUGGUA [C3G U52C] — higher, 0.359
- GUGCUCUUUCACGUGCGCGUGAAAGAGAGAAGUGAACCAGAGAAACACACGUUGCGGUAUAUUACCUGGUA [C3G U55C] — higher, 0.118
- GUGCUCUUUCACGUGCGCGUGAAAGAGAGAAGUGAACCAGAGAAACACACGUUGGGGUAUAUUACCUGGUA [C3G U55G] — higher, 0.0936
- GUGCGCUUUCACGUGCGCGUGAAAGAGAGAAGUGAACCAGAGAAACACACGUUGUGGUAUAUUACCUGGUA [C3G U5G] — higher, 0.163
- GUGCACUUUCACGUGCGCGUGAAAGAGAGAAGUGAACCAGAGAAACACACGUUGUGGUAUAUUACCUGGUA [C3G U5A] — higher, 0.15
